Test results from publication PMC6940538 (Angewandte Chemie (International ed. in English), 2019).

Legend:
AUC = target: the molecule itself; assay: AUC
SEC = target: the molecule itself; assay: SEC
crystal structure = target: the molecule itself; assay: crystal structure

Row | Protein | stoichiometry N (AUC) | stoichiometry N (SEC) | stoichiometry N (crystal structure)
1 | MtmW (enzyme, Streptomyces argillaceus, UniProt Q194Q1 1-326, looked up) MVAVEFRSLGRSGLSVSEIVYGNLLYPQDDTPDEVVLSSIRAALDAGVTTFDTADVYGMFRSESLLGRALAGTPREELVLCTKVGMPTGFGPNGRGLSRKHVMESVDGSLRRLRVDHIDVYTAHRYDPATPLEELMWTFSDLVRAGKILYVGMSEWPVERIAEAAGIGARLGVPVICHMPRYSMLWRAPEAEVIPACRDLGIGQICYFTLEQGVLTGKYAPGAPPPAGSRATAPKGGRAPLMRRWLDDDKVLGRVERLRPLAEEAGLTTAHLAWVLQNPAVSGAVIGSFNAEQVLANAESAGVRLETDLLVRIDEVLGDSVVHDEE | 8 | ~8 | –
2 | MtmW (ΔN3) (enzyme, Streptomyces argillaceus, UniProt Q194Q1 4-326, looked up) VEFRSLGRSGLSVSEIVYGNLLYPQDDTPDEVVLSSIRAALDAGVTTFDTADVYGMFRSESLLGRALAGTPREELVLCTKVGMPTGFGPNGRGLSRKHVMESVDGSLRRLRVDHIDVYTAHRYDPATPLEELMWTFSDLVRAGKILYVGMSEWPVERIAEAAGIGARLGVPVICHMPRYSMLWRAPEAEVIPACRDLGIGQICYFTLEQGVLTGKYAPGAPPPAGSRATAPKGGRAPLMRRWLDDDKVLGRVERLRPLAEEAGLTTAHLAWVLQNPAVSGAVIGSFNAEQVLANAESAGVRLETDLLVRIDEVLGDSVVHDEE | – | – | 8
